According to PMC6992785, “In cellulo crystallization of Trypanosoma brucei IMP dehydrogenase enables the identification of genuine co-factors” (Nature Communications, 2020):

Molecular target: the molecule itself
Experiment: crystal structure; serial femtosecond crystallography (XFEL, LCLS CXI) at room temperature (291 K) on crystals grown in living Sf9 cells, isolated and kept in PBS; 2.80 Å; space group P4 21 2, two monomers in the asymmetric unit; native ATP and GMP bound

B1: Trypanosoma brucei inosine-5'-monophosphate dehydrogenase (enzyme, UniProt P50098 1-512, looked up)
chain: MENTNLRTKTLRDGTTAEELFSQDGLSFNDFIILPGFIDFDSSKVNVSGQFTKNILLHLPLVSSPMDTVTESSMARAMALMGGIGVIHNNCTVEQQARMVRSVKLYRNGFIMKPKSVSPDVPVSTIRNIKSEKGISGILVTEGGKYDGKLLGIVCTKDIDFVKDASAPVSQYMTRRENMTVERYPIKLEEAMDVLNRSRHGYLPVLNDKDEVVCLCSRRDAVRARDYPNSSLDRNGHLLCAAATSTREADKGRVAALSEAGIDVLVLDSSQGNTIYQVSFIRWVKKTYPHLEVVAGNVVTQDQAKNLIDAGADSLRIGMGSGSICITQEVLACGRPQATAIYKVARYAASRGVPCVADGGLRNVGDVCKALAVGANVAMLGSMIAGTSETPGEYFFKDGMRLKGYRGMGSIDAMLQGRESGKRYLSENETLQVAQGVAGAVLDKGSVLKLLAYIHKGLQQSAQDIGEVSFDAIREKVYEGQVLFNRRTLTAQSEGAVHSLHHYERKLFASKL
notes: Inosine-5'-monophosphate dehydrogenase of Trypanosoma brucei, full length, with its native C-terminal SKL motif (PTS1); Two monomers in the asymmetric unit; the octamer arises by crystal symmetry; also called TbIMPDH; IMPDH; source: Sf9 insect cells infected with recombinant baculovirus; crystallised in cellulo, crystals isolated by cell lysis (RIPA buffer), washed and stored in PBS; not shown: …
stoichiometry N: 8
